According to patent US11666671B2, “Spatial mapping of kidney functions” (Northwestern University, priority 2018, dated 2023):
Like-named read-outs stand apart in the source and are kept apart here.

Experiments:
[1] = Conventional renal scintigraphy (renogram) with radionuclide-bound tracers (FIG. 1)
Text: FIG. 1 is a low-resolution renogram of a patient using conventional radionuclide-bound tracer ^99mTc DTPA with renal scintigraphy.

[2] = Renal histology (immunofluorescence) and renal tubular handling of the carriers (FIGS. 3, 4); settings: ^99mTc/HYNIC-labelled carriers
FcRn = experiment: Binding of Fc to FcRn on renal tubular epithelial cells; format: in vivo; settings: surface of renal tubular epithelial cells
[3] = mouse, in vivo
[4] = not given; remark: listed apart in the source
[5] = not given; remark: listed apart in the source
[6] = steady state, from 45 min onward, FIG. 8A

Compound: O=C([O-])CN(CCN(CC(=O)[O-])CC(=O)[O-])CCN(CC(=O)[O-])CC(=O)[O-].[99Tc+4] [^99mTc DTPA, ^99mTc Diethylenetriamine-Pentaacetic Acid]
- time to wash out of the system [1]: ≤ 20 min

Compound: Fc: imaging agent using ^99mTc as detection moiety, HYNIC as chelation moiety, and Fc alone as carrier moiety [reference compound]
- renal tubular handling / fate of the carrier [2]: reenters blood circulation via peritubular capillaries
- FcRn binding (FcRn): binds the FcRn on the surface of renal tubular epithelial cells

Compound: PBT-Fc carrier moiety: N-terminal His6 tag, PBT from human VEGFA (amino acids 131-163), and Fc of human IgG1, expressed in E. coli
- distribution of the probe in renal histology (immunofluorescence) [3]: mainly in the tubular basement membrane

Compound: ^99mTc/HYNIC/PBT-Fc: ^99mTc as the detection moiety, HYNIC as the chelation moiety, and PBT-Fc as the carrier moiety
- intrarenal localization (section view) (FIG. 8B): localization of PBT-Fc to the kidney cortex
- ^99mTc signal in liver and bladder [6]: low levels of signal accumulation in the liver and the bladder
- ^99mTc signal in the kidney [6]: concentrated in the kidney
- time the agent stayed in the subject's system for steady state imaging ([4]; FIG. 7): 60 min
- renal fate / urinary excretion of the agent ([4]; FIG. 7, steady state): concentrated in the kidney without being excreted into urine
- kidney retention compared with Fc-alone and Duramycin agents ([4]; FIGS. 6 and 7): accumulate and remain the kidneys of the subjects for much longer than that of the Fc-alone and Duramycin agents
- renal tubular handling / fate of the carrier [2]: “trapped” in the tubular basement membrane (TBM)
- renal fate / urinary excretion of the agent ([5]; after administration to test subjects): fixed (e.g., permanently) at the basement membrane of the downstream renal tubules without being further excreted into urine
- time after which radio signals accumulated in the kidney reach the plateau ([5]; glomerular filtration phase, tail vein injection): 10 to 20 min
